These results are taken from patent US20260085127A1 (BRIGHTPATH BIOTHERAPEUTICS, published 2026).

Several values for one entry are separate records, joined by “and”; a condition that tells them apart may be missing. Equal entries are not always repeated. Where two headings read alike, the source gives them in different places.

For assay [1], the target named is T1, recombinant human CD39 (in-house product, 38 to 478 aa of Accession No. NM_001776.6) (human, UniProt P49961 38-478).
T1 construct: also called rhCD39; human CD39-ECD; not shown: Myc and His tags at the C-terminus are named only for the PE-lab
T1 sequence (looked up): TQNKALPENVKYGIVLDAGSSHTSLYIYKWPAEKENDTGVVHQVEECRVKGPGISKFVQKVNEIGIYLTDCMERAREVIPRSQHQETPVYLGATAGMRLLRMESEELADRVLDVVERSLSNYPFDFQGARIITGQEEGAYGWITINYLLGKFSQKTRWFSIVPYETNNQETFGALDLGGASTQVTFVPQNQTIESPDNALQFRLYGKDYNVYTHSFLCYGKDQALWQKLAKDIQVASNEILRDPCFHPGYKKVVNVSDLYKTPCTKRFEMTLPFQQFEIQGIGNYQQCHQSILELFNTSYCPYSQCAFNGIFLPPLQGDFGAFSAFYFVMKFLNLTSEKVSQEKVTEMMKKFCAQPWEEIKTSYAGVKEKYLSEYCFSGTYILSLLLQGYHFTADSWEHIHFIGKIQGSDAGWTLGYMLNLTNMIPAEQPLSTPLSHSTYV
Description: SPR Biacore8K, antibody captured on anti-human IgG, antigen as analyte. In general terms: In SPR one partner is held on a chip, and binding of the other changes the refractive index at the surface.

Assay [2] has as its target T2, human CD39 (Accession No. NM_001776.6) expressed on cells (human, UniProt P49961 1-510).
T2 construct: whole, on cells; On Jurkat, 293T or SK-MEL28 cells; also called Jurkat/CD39; 293T/CD39
T2 sequence (looked up): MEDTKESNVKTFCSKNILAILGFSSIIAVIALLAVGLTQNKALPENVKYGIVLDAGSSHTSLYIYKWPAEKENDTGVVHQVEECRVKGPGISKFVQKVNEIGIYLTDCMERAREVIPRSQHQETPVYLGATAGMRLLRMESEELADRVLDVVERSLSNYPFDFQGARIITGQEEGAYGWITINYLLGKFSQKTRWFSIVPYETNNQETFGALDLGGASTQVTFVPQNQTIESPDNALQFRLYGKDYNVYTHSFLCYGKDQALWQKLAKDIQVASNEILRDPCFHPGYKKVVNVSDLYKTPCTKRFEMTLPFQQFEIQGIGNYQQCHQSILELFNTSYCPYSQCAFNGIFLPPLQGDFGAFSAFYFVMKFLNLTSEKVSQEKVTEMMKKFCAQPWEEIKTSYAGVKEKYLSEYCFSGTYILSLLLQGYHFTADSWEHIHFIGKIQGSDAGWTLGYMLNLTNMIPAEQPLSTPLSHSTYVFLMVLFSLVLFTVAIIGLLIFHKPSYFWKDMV
Nature of the assay: flow cytometry, 293T/CD39 cells, KD from MFI. In general terms: Flow cytometry measures light scatter and fluorescence of single cells or particles in a stream.

Assay [3] addresses T3, human TIM-3 (Accession No. JX049979.1) stably expressed on cells (human, UniProt Q8TDQ0 22-301).
T3 construct: whole, on cells; On Jurkat or 293T cells; also called Jurkat/TIM-3; 293T/TIM-3
Description: flow cytometry on a mix of Jurkat, Jurkat/TIM-3, Jurkat/CD39 and Jurkat/TIM-3+CD39 cells in one well, antibody at 1 nM, BV421-anti-hIgG, MFI of BV421 per cell group.

Assay [4] deals with T2, human CD39 (Accession No. NM_001776.6) …. Nature of the assay: flow cytometry, 293T/TIM-3 + CD39 cells, KD from MFI.
Assay [5] has the same target. Description: flow cytometry on a mix of Jurkat, Jurkat/TIM-3, Jurkat/CD39 and Jurkat/TIM-3+CD39 cells in one well, antibody at 1 nM, BV421-anti-hIgG, MFI of BV421 per cell group.
The target in assay [6] is T4, biotinylated human TIM-3-Fc antigen (in-house product, SEQ ID No: 118) (human, biotinylated). Description: flow cytometry, inhibition of biotinylated TIM-3-Fc binding to phosphatidylserine on apoptotic Jurkat cells.
Assay [7] has as its target T3, human TIM-3 (Accession No. JX049979.1) …. Nature of the assay: flow cytometry, Jurkat/TIM-3 cells, KD from MFI.
The target of assay [8] is T2, human CD39 (Accession No. NM_001776.6) …. Description: flow cytometry on a mix of Jurkat, Jurkat/TIM-3, Jurkat/CD39 and Jurkat/TIM-3+CD39 cells in one well, antibody at 0.1 nM, BV421-anti-hIgG, MFI of BV421 per cell group.
Assay [9] has as its target T3, human TIM-3 (Accession No. JX049979.1) …. Description: flow cytometry, Jurkat/TIM-3 + CD39 cells, KD from MFI.
Assay [10] has as its target T4, biotinylated human TIM-3-Fc antigen …. Description: flow cytometry, inhibition of biotinylated TIM-3-Fc binding to phosphatidylserine on apoptotic Jurkat cells. The source holds these as a separate data set.
Assay [11] shares this target. Description: competition ELISA: human Galectin-9 coated, biotinylated human TIM-3-Fc pre-mixed with the antibody dilution series, Streptavidin-HRP, A450; blocked ligand: human Galectin-9.
The target of assay [12] is T3, human TIM-3 (Accession No. JX049979.1) …. Description: flow cytometry, 293T/TIM-3 cells, KD from MFI.
Assay [13] addresses T2, human CD39 (Accession No. NM_001776.6) …. Nature of the assay: flow cytometry, 293T/CD39 cells, KD from MFI. This is another data set of the same source.
Assay [14] concerns the target T1, recombinant human CD39 (in-house …). Nature of the assay: SPR Biacore8K, antibody captured on anti-human IgG, antigen as analyte. This is another data set of the same source.
Assay [15] concerns the target T4, biotinylated human TIM-3-Fc antigen …. Nature of the assay: competition ELISA: human Galectin-9 coated, biotinylated human TIM-3-Fc pre-mixed with the antibody dilution series, Streptavidin-HRP, A450; blocked ligand: human Galectin-9. This is another data set of the same source.

What is called Kd is a measure of binding affinity in units of concentration. The term koff denotes a measure of how fast the partners let go of each other. Broadly, the kon is the second-order rate constant of association. What is called IC50 is the concentration needed to halve the response being measured. Lower therefore signals inhibition by little substance.

B1: 6-3hIG_LA (antibody, V domains shown)
VH: QVQLVQSGAELVKPGASVKLSCKASGFSIKDTYVHWVKQAPGKGLEWIGKIDPANVNTKFDPKFQGRVTITADTSTNTAYLQLSSLRSEDTAVYYCALYGYDDDAYYFDYWGQGTLVTVSS
VL: EIVLTQSPASLSVSPGERATISCRASESVDNYGISFMNWFQQKPGQAPKLLIYAASNQGSGVPARFSGSGSGTDFTLTISSLEPEDFAVYYCQQSKEVPYTFGQGTKLEIK
notes: IgG1LALA homodimeric antibody; also called IgG1LALA homodimeric antibody of anti-CD39 antibody (humanized) 6-3hIG
For B1, in assay [1], the Kd is 0.629 nM, the koff was found to be 0.000193 s⁻¹ and the kon stood at 307000 M⁻¹ s⁻¹. In assay [2], the Kd stood at 7.04 nM. Besides, in [3], the binding result is on record as “no binding (tested: 1 nM)”. Moreover, the Kd in [4] was 16.8 nM.

B2: Hu003_13_F20_LA (antibody, V domains shown)
VH: QVQLQESGGGLVKPGGSLKLSCAASGFTFSSYYMSWVRQTPDKRLEWVATISNSGGSTYYPDSVKDRFTISRDNAKNTLYLQMSSLKSEDTAMYYCARDPYYTNYVPMDYWGQGTMVTVSS
VL: DIVMTQSPSFLSASVGDRVTITCKASQYVDTYVAWYQQRPGKAPKPLIYSASTRHTGVPSRFSGSGSGTEFTLTISSLQPEDFATYFCAQYSSSPLTFGGGTKLELK
notes: IgG1LALA homodimeric antibody (IgG1 with L234A and L235A); also called Hu003_LA; Hu003-LA
For the molecule B2, in [5], the binding result is “no binding (tested: 1 nM)”. Moreover, the IC50 in [6] is 8.93 nM and 7.11 nM and 8.51 nM and 12.3 nM.

B3: Hu072_11_sc (antibody)
scFv: QVQLQESGGGLVKPGGSLKLSCAASGFTFSSYYMSWVRQTPDKRLEWVATISNSGGSTYYPDSVKDRFTISRDNAKNTLYLQMSSLKSEDTAMYYCARDPYYTNYVPMDYWGQGTMVTVSSGGGGSGGGGSGGGGSGGGGSDIVMTQSPDSLAVSLGERVTLSCKASENVGTYVSWYQQKPRQPPKLLIYGASNRYTGVPDRFSGSGSGTDFTLTISSLQAEDVALYYCGQSYSYPLTFGQGTRLEIK
notes: scFv-Fc homodimer, anti-TIM-3; also called scFv-Fc homodimeric antibody of anti-TIM-3_ScFv antibody Hu072_11; not shown: GGGG linker and Fc-LALA (IgG1 Fc with L234A and L235A)
B3: the Kd was 26.8 nM in [7] and 31.2 nM in assay [9]. Moreover, in assay [8], the binding result is recorded as “no binding (tested: 0.1 nM)”.

B4: HuP4_11_Hu003_Ct (bispecific antibody)
chain 1: EVQLVESGGALVQPGRSLRLSCAVSGFTLSNYGVHWVRQAPGKGLEWVAVILRRGSTDYNAAFMSRFTISKDNSKNTVYLQMNSLRADDTAVVAGDYFDYWGQGTTVTVSSGGGGSGGGGSGGGGSGGGGSDIVMTQSQKFMSTSVGDRVSITCKASQNVGTNVAWYQQKPGQSPKLLIYSASYRYSGVPDRFTGSGSGTDFTLTISNMQSEDLADYFCQQYNSYPLTFGGGTKLEIK
chain 2: QVQLQESGGGLVKPGGSLKLSCAASGFTFSSYYMSWVRQTPDKRLEWVATISNSGGSTYYPDSVKDRFTISRDNAKNTLYLQMSSLKSEDTAMYYCARDPYYTNYVPMDYWGQGTMVTVSSGGGGSGGGGSGGGGSGGGGSDIVMTQSPSFLSASVGDRVTITCKASQYVDTYVAWYQQRPGKAPKPLIYSASTRHTGVPSRFSGSGSGTEFTLTISSLQPEDFATYFCAQYSSSPLTFGGGTKLELK
In the case of B4, in [10], the IC50 stood at 30.7 nM. The “IC50 (read off the curve)” value in assay [11] is roughly 3 nM.

B5: I67_Hu003_Fsc (bispecific antibody, not shown: a dimerising Fc or GST)
VH: DVQLQESGPSLVQPSQSLSINCTVSGFSLSSYGVHWVRQSPGKGLEWLGVIWRRGSTDYNAAFMSRLSITKDNSKSQVFFKMNRLQADDTATYYCAKGISTATSWFAYWGQGTLVTVSA
VL: DIVMTQSHKFMSTSVGDRVSVTCKASQNVGTNVAWYQQKPGQSPKALIYSASYRYSGVPDRFTGSGSGTDFTLTISNVQSEDLAEYFCQQYNSYPLTFGAGTKLELK
scFv: B4 chain 2
notes: Fab-scFv-Fc heterodimer: anti-CD39 Fab I67 (Knob)
For B5, in assay [12], binding was put at a Kd of 4.78 nM. The IC50 in assay [6] amounted to 25.2 nM.

B6: HuP4_IB_Hu003 (bispecific antibody)
chain 1: QVQLLESGPELVKPSATLSITCTVSGFSLTNYGVHWIRQAPGKGLEWLGVILRRGSTDYNAAFMSRFTISKDNSKNQVYFKLRSVTAEDTAVVAGDYFDYWGQGTMVTVSSGGGGSGGGGSGGGGSGGGGSDIQMTQSHSTLSLSVGDRVTITCKASQNVGTNVAWYQQKPGQPPKALIYSASYRYSGVPSRFSGSGSGTDFTLTISSVQAEDVAVYYCQQYNSYPLTFGPGTKLEIK
chain 2: B4 chain 2
Consider B6, for which the Kd in assay [12] is 8.66 nM; in assay [1], 0.334 nM; in [13], 11.4 nM. In assay [10], this molecule returned an IC50 of 16.5 nM. Besides, in assay [11], the “IC50 (read off the curve)” value was roughly 3 nM.

B7: 6-3hIG_Hu003_Fsc (bispecific antibody, not shown: a dimerising Fc or GST)
VH: B1 VH
VL: B1 VL
scFv: B4 chain 2
As for B7, the Kd in [14] turned out to be 0.21 nM; in [13], 17.6 nM. In addition, the IC50 in assay [6] is 15.5 nM. In assay [15], the “IC50 (read off the curve)” value is roughly 2 nM.
